In a protein production outcome set (Wang et al. 2014):

Experiment: label from the status in PepcDB records
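Also: failed if final PepcDB status was selected cloned or expressed and not failed if soluble or beyond.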

Sequence	protein production
MDKLNAISIFCKVIETQSFTLAAKQQNISVAMASKLVSQLEEHLKTRLLQRTTRKIMPTEAGMMYYQRCQGILLDLDEADSSITQLTSSLQGNLLISVPRDFGLLFIAPNLPTFMAKHPHLHIEVEFNDKKIDLLSEGYDLALRIGYMEDSSLVSRKIGTTTVHFAASPNYLETNGIPQTPDDLEHHNGLLYKNAMNQVNWVGSRINQTQRFKIQSKVVSNSGFALLNMAKAGLGIANLPKFILGRAFEKGELIEILPEYKQQKLEIHVVYPNRRHLPIKVTGISLNF	failed
MTTMQSRERLVKWLQDAYAMEKEAETMMAAMASRIEHYPELKRRIEQHVEETQQQSAGVQRCLELLNGSIPTAKGMLSSVLASMHAAGNSMMTDEVTKGVGISYAFEHLEIASYRALVVAARSAGEQEVAQICEDILQQEIEMAEWLIEHQEAIVVAFLEREQLEGVTAKR	not failed
SAVPGGMFAPSLAVGAGFGLNMSQLLPFLPQSMVVLLGMVGFFAGMTRAPMTGFVIVMEMTDTSGMIIPLMATALIAASVSRLVSRRALYDGQVRLFLPQWRTQAGQ	failed
MYSKIEGSIITARFDKETDFFTDLVDLCNKYEVKSGTVLWAIGMLKEFQIGYWNGNDYEKETFRERLELVSLHGSIAENDPRFHIHAAGARGNHGIVGGHLFSAKVDPLVEIQIMKITGFSMSRELDNSDGLYKLVIKLEHHHHHH	failed
MIPEHLSIYTAYNANIDAIVKLNQETIQNLINAFDPDEVKRRIEEYPREINEPIDFVARLVHTLKLGKPAAVPLVNEKMNEWFDKTFRYEEERLGGQAGIIANTLAGLKIRKVIAYTPFLPKRLAELFKKGVLYPVVENGELQFKPIQEAYREGDPLKINRIFEFRKGLKFKLGDETIEIPNSGRFIVSARFESISRIETREDIKPFLGEIGKEVDGAIFSGYQGLRTKYSDGKDANYYLRRAKEDIIEFKEKDVKIHVEFASVQDRKLRKKIITNILPFVDSVGIDEAEIAQILSVLGYRELADRIFTYNRLEDSILGGMIILDELNFEILQVHTTYYLMYITHRDNPLSEEELAKSLEFGTTLAAARASLGDIRGPDDYKVGLKVPFNERSEYVKLRFEEAKSRLRMREYKVVVIPTRLVQNPVLTVGLGDTISAGAFLTYLEFLKRH	not failed
MERQVLLSEPEEAAALYRGLSRQPALSAACLGPEVTTQYGGQYRTVHTEWTQRDLERMENIRFCRQYLVFHDGDSVVFAGPAGNSVETRGELLSRESPSGTMKAVLRKAGGTGPGEEKQFLEVWEKNRKLKSFNLSALEKHGPVYEDDCFGCLSWSHSETHLLYVAEKKRPKAESFFQTKALDVSASDDEIARLKKPDQAIKGDQFVFYEDWGENMVSKSIPVLCVLDVESGNISVLEGVPENVSPGQAFWAPGDAGVVFVGWWHEPFRLGIRFCTNRRSALYYVDLIGGKCELLSDDSLAVSSPRLSPDQCRIVYLQYPSLIPHHQCSQLCLYDWYTKVTSVVVDVVPRQLGENFSGIYCSLLPLGCWSADSQRVVFDSAQRSRQDLFAVDTQVGTVTSLTAGGSGGSWKLLTIDQDLMVAQFSTPSLPPTLKVGFLPSAGKEQSVLWVSLEEAEPIPDIHWGIRVLQPPPEQENVQYAGLDFEAILLQPGSPPDKTQVPMVVMPHGGPHSSFVTAWMLFPAMLCKMGFAVLLVNYRGSTGFGQDSILSLPGNVGHQDVKDVQFAVEQVLQEEHFDASHVALMGGSHGGFISCHLIGQYPETYRACVARNPVINIASMLGSTDIPDWCVVEAGFPFSSDCLPDLSVWAEMLDKSPIRYIPQVKTPLLLMLGQEDRRVPFKQGMEYYRALKTRNVPVRLLLYPKSTHALSEVEVESDSFMNAVLWLRTHLGS	failed
KERERLEEKLEDANERIAELVKLEERQRIARDLHDTLGQKLSLIGLKSDLARKLIYKDPEQAARELKSVQQTARTSLNEVRKIVSSMKGIRLKDELINIKQILEAADIMFIYEEEKWPENISLLNENILSMCLKEAVTNVVKHSQAKTCRVDIQQLWKEVVITVSDDGTFKGEENSFSKGHGLLGMRERLEFANGSLHIDTENGTKLTMAIPNNSK	not failed
MSIIAFLSYVIMTSITPGPSNILMMNEAQRFGFTGSWRFSSGILAGFAVLGILSGAFTISLYNWIPVVEPYFKLAGACYLIYLALQVGFTKNKKQDSTEARSSFISGFIFQLINIKSILFFLTVMSAFVLPFNHSLKSTIYYLALAIVLGWLALLLWSGFGSVFKRVFAKHDRVFRVLMCLLLMYSAVSIFR	failed
MSLTDTKVKNAKPSEKVVKLTDGFGLYLLVHTNGSKYWQLGYRFEGKQKVFSIGVYPAVSLANARQRRDEAKKLLAAGVDPSAKKRADNKSVQEKRNNTRAFKTVAKSWFATKTTWSEDYQRSVWTRLETYLFPDIGNKDIAELDTGDLLVPIKKIEKLGYLEIAMRVKQYATAIMRYAVQQKMIRFNPAYDLEGAVQKPQTEHRPAIELEEIPTLLERIEGYKGRSRLTQLAIKLNLLIFIRSSELRFARWSEIDFKSGLWVIPEQREAIKGIKHSDRGAKMRRKHYVPLCEQALVILGELKDLTYDVNGDDGFILTGCYDAMKPMSENTINKALRKMGYDTKTDLCGHGFRTLACSALIESGIWPEDVVELQMSHMEKNNVRAAYTHKAKHLEQRRLMLQWWADFLDANGSGMVRPFEFAQGATQY	failed
MNLSFKIFDISNTQRSKAKKVQGKKYEIFLNENEHSLITPKVSFKEILRYYYLYPKNAIPSFKLPFFKPDLSGFSTPHITWLGHSSLFISFKEYKILIDPIFNTHASPISFINKAFKNAPVYNINDFNEIFAVIITHSHFDHLDAKSVKALKDKAKFFITPLKVGNYLKSYGVSEKKIIELDWWSGIEFGDLKIMATPAQHSSSRGDGKNKTLWASFVMEFLSVDKRVFFSADGGYFTHFKKIGEYFGSFDLACLESGQFNIAWPYSHSFPEQILKEAKDLNAKAVMPIHWGRFLAGTHAWNEVVKFLYENLDLPLITPKMGEAYEVGAKFKQDFWWKEELEHHHHHH	failed
RVGIIVAAHGNSTASSMVEVATELLGSTPIAAVDMPLTVSPSDILECVAEKMKQVDEGEGVLMLVDMGSLAMLESRLEEKTGISIKTISNVTTSMVLDAVRKVNYLNLNLHAIYQSVTKDFIELWERQPAASGKK	failed
MPFSISGRKGSEMMAKLDELKQKLTAKQIQAAYLLVENELMESNNEEKRTQDEMANELGINRTTLWEWRTKNQDFIAFKSEVADSFLAEKREQVYSKLMQLILGPQPSVKAMQLYMQRFGLLTDKKVIEGDLGNATRTNAEIEEQLQKLKKLTGE	not failed
MAMSFSGAVLTGMASSFHSGAKQSSFGAVRVGQKTQFVVVSQRKKSLIYAAKGDGNILDDLNEATKKASDFVTDKTKEALADGEKAKDYVVEKNSETADTLGKEAEKAAAYVEEKGKEAANKAAEFAEGKAGEAKDATK	failed
MDDISVSKSNHGNVVVLNIKASSLADTSLPSNKHESSSPPLLSVHFLQKLLAELVGTYYLIFAGCAAIAVNAQHNHVVTLVGIAVVWGIVIMVLVYCLGHLSAHFNPAVTLALASSQRFPLNQVPAYITVQVIGSTLASATLRLLFDLNNDVCSKKHDVFLGSSPSGSDLQAFVMEFIITGFLMLVVCAVTTTKRTTEELEGLIIGATVTLNVIFAGEVSGASMNPARSIGPALVWGCYKGIWIYLLAPTLGAVSGALIHKMLPSIQNAEPEFSKTGSSHKRVTDLPL	failed
MHEKTKFRLHSHDVPYGSGSGQQSVTGFPGVVDSNSYWIVKPVPGTTEKQGDAVKSGATIRLQHMKTRKWLHSHLHASPISGNLEVSCFGDDTNSDTGDHWKLIIEGSGKTWKQDQRVRLQHIDTSGYLHSHDKKYQRIAGGQQEVCGIREKKADNIWLAAEGVYLPLNESSK	not failed
QQMQAESGFVQHVGFKCDNCGIEPIQGVRWHCQDCPPEMSLDFCDSCSDCLHETDIHKEDHQLEPIYRS	not failed
MPTFLAALLTGLFNLCKSKLGYFVATAFVWLGINWGSYHFVISPLVEQLYTYVDSVGTAGGRFGELALRALGLLNFDRALTMIISAYVSRFAMLNGRLYLFKRGYGVAPPASPKHEPFIPPAG	failed
MSLNVIDLFSGVGGLSLGAARAGFDVKMAVEIDQHAINTHAINFPRSLHVQEDVSLLNAEIIKGFFKNDMPIDGIIGGPPCQGFSSIGKGNPDDSRNQLYMHFYRLVSELQPLFFLAENVPGIMQEKYSGIRNKAFNLVSGDYDILDPIKVKASDYGAPTIRTRYFFIGVKKSLKLDISDEVFMPKMIDPVTVKDALYGLPDIIDANWQSDSESWRTIKKDRKGGFYEKLWGQIPRNVGDTESIAKLKNNIISGCTGTLHSKIVQERYASLSFGETDKISRSTRLDPNGFCPTLRAGTARDKGSFQAVRPIHPYHPRVITPREAARLQGFPDWFRFHVTKWHSFRQIGNSVSPIVAEYILKGLYNLLNEGHHHHHH	not failed
MQDFWHAASAQLESELTPQQFKTWIKPLTPLSFDEQACMLRIAAPNRFKLDWVKSQFSGRIQSLACDYWEMQVDVQFVLDPTAGQRQAAMQPALAPMPMQPLAAQTMQAQAVPREAPARPTMAPYRETPMATAAHAAADIDVPVMDAAEASTQSYRVPAPAAPAVMGGLSAPPAAPVDDTVHERSRLNPILTFDNLVTGKANQLARAAAVQVANNPGKSYNPLYLYGGVGLGKTHLIHAIGNFMLMENPRARIRYIHAEQYVSDVVKAYQRKAFDDFKRYYHSLDLLLIDDIQFFSGKNRTQEEFFYAFEALIANRAQVIITSDTYPKEITGIDDRLISRFDSGLTVAIEPPELEMRVAILMKKAQAENVTVPEEVAFFVAKHLRSNVRELEGALRKILAYSNFHGKEITIEVTREALKDLLTVQNRQISVENIQKTCADFYNIKVADMYSKKRPANIARPRQIAMYLAKELTQKSLPEIGELFGGRDHTTVLHAVRKIADERSKDAQLNHELHVLEQTLKG	failed
MHRSTFIRTSGTSSRTLTARYRSQYTGLLVARVLFSTSTTRAQGGNPRSPLQIFRDTFKKEWEKSQELQENIKTLQDASGKLGESEAYKKAREAYLKAQRGSTIVGKTLKKTGETMEHIATKAWESELGKNTRKAAAATAKKLDESFEPVRQTKIYKEVSEVIDDGESSRYGGFITKEQRRLKRERDLASGKRHRAVKSNEDAGTAVVATNIESKESFGKKVEDFKEKTVVGRSIQSLKNKLWDESENPLIVVMRKITNKVGGFFAETESSRVYSQFKLMDPTFSNESFTRHLREYIVPEILEAYVKGDVKVLKKWFSEAPFNVYAAQQKIFKEQDVYADGRILDIRGVEIVSAKLLAPQDIPVLVVGCRAQEINLYRKKKTGEIAAGDEANILMSSYAMVFTRDPEQIDDDETEGWKILEFVRGGSRQFT	failed
MMTTRNGSLRFFNHTFSFYDEATCVVREEELQRELMPRHVSFILDGNRRWAKRDGLTTAQGHEAGTKRIIEIAERIGEETRKEVRVSVIGNKTKIPESLLKEIHEIEEATKATRISISSWQ	failed
NPQIREEVALDTQTGANPSAEELADGDIQAVAQAANERTGALFVVITDGLGIRLSHPDEERLGEQVSTSFEAAMRGEETMAWETGTLGASARAKVPIFAPDSSVPVGEVSVGFERDSVYSRLPMFLAA	failed
MNIAPLKVSLLSLALLLSPVASLPAHAACTANLALQPASSLPALGGRLVYHSYMEYGDGSSNLYLHDFKSKSTRQLNQPGWNIEDPMNAHFSPDGRYLTFMGRQNGAWHVFAWAIGGTQAPSNLTAAIGGRNEDPKFSFDGRQVVLKHEGDIRLATLVFNGDGSVGVSAWKAVTGDGWSTEESMPFLTPSGKYVVYATGAGDSLRVVRRNLENGQVCALATPAAGGRDYYPVVRDYTAYFLSRTQPAGNDQLAMVVPNSPPGTPAILPLNHCQGDNSDAAPVNEDYLIFSSTSFDPTYSLLLGDIAAARVWRLDPAQINLPDGRQKLGASYTAAR	failed
